B1: OAS1 (parent)
chain: TPAKSLDKFIEDYLLPDTCFRMQI

Variants of: B1
Experiment: protein stability index of a GFP-peptide fusion (GPS, HEK-293T) (PSI 1-6); higher = more stable
Conditions: c terminus: a fixed tail appended
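Also: lentivirally expressed fusions sorted by FACS into six bins by GFP to DsRed ratio, PSI derived from sequencing read proportions per bin multiplied by bin number.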

Protein stability index: each site, then its substitutions
K4: T 2.48, I 1.9, F 2.9, H 2.59, L 2.23, P 2.13, W 3.85, D 2.19, M 1.67, C 2.29, N 2.52, S 2.24
P2: L 2.82, Q 2.97, S 1.69, T 2.82, D 1.92, N 3.68, I 2.16, H 3.76, W 3.86, R 2.81, G 3.49, M 3.28, V 1.74, F 3.08
L14: P 2.46, K 2.37, F 3.94, V 2.83, C 2.35, T 2.05, W 2.18, Y 3.1, Q 1.62, E 1.74, I 2.08, N 3.44, H 2.62, S 1.74, D 1.77, R 1.8, G 2.84, M 3.5
S5: R 3.08, D 2.02, Q 2.4, C 2.19, V 3.06, H 1.69, A 2.52, L 3.15, F 1.63, N 2.78, T 2.86, W 1.99, K 2.14, M 2.42, Y 2.89, I 2.43, E 1.74
K8: R 3.07, T 3.17, H 1.77, V 3.42, G 1.62, Q 1.68, A 2.58, M 2.04, N 2.09, E 3.06, S 2.43, W 1.98, P 3.17, D 2.58, L 3.06, C 2.99
L6: Q 2.47, I 3.63, W 2.19, H 2.66, M 2.18, D 1.38, P 2.43, S 1.94, E 1.49, T 3.08, Y 3, V 1.97, C 2.68, A 2.89, N 2.45, R 2.55, F 4.79, K 1.61
D12: S 2.1, F 2.97, Y 2.19, A 3.14, M 2.77, E 2.14, T 2.58, K 2.75, N 2.91, W 2.51, Q 2.92, C 1.76, G 1.79, L 2.81, I 1.4, R 3.33, H 2.25
D17: G 3.94, L 3.49, A 2.9, F 3.31, S 2.79, N 1.77, Q 1.88, E 2.69, Y 2.32, M 2.99, T 2.03, P 3.25, H 2.43, K 2.51, R 2.98
F9: L 3.52, D 2.17, A 2.42, V 3.9, R 2.08, C 2.66, E 1.75, H 2.91, Q 2.15, G 1.62, M 3.26, P 1.97, T 2.95, N 3.1, Y 1.96, S 2.32, K 2.13, W 3.55
E11: I 2.61, F 2.29, G 3, W 2.84, V 3.93, N 3.04, M 3.78, D 2.34, K 2.83, Q 2.19, C 2.38, T 2.33, S 1.97, L 3.59, P 3.89, H 1.26, A 2.77, R 4.73, Y 1.66
F20: Q 1.58, T 2.21, N 1.95, E 1.97, L 2.2, S 2.28, Y 2.56, D 2.43, A 2.23, R 2.8, W 3.38, K 2.4, V 2.97, P 1.75, H 1.47, M 3.12, G 1.74, I 3.6, C 2.15
T18: C 3.48, P 1.59, L 2.42, E 3.65, W 2.58, K 1.83, D 3.16, F 2.45, V 2.23, G 3.04, A 2.25, N 2.41, R 3.05, I 2.04, Q 2.89, Y 3.93, H 2.22, M 2.36
L15: V 3.19, I 3.88, Q 3.04, F 3.79, A 1.72, D 1.74, H 2.12, E 3.04, W 2.56, K 2.07, N 2.21, T 1.74, G 2.43, P 2.31, R 3.08, S 2.26
P16: R 3.61, M 1.84, I 2.41, A 2.73, V 3.9, E 1.93, N 2.65, Y 1.82, K 2.78, S 2.49, H 2.28, T 2.68, W 1.9, Q 3.14, C 2.44
Y13: G 1.85, R 1.27, Q 1.5, P 1.57, S 2.22, C 3.56, M 2.12, N 1.85, W 3.04, V 2.87, I 2.54, T 1.9, D 2.36, F 3.4, L 3.57, E 1.79, A 1.98
C19: T 2.24, K 1.59, I 4.78, V 3.28, W 3.2, G 2.44, N 3.42, Q 2.3, R 3.1, H 2.96, P 2.68, A 2.88, E 1.43, L 2.02, D 1.62, F 2.51, Y 3.22
D7: K 2.05, I 2.96, N 2.1, Y 2.21, Q 2.94, T 1.25, S 3.08, A 2.77, W 3.11, M 2.87, P 1.73, R 2.9, C 2.77, L 2.42, H 3.9
I10: D 1.55, T 2.35, F 3.41, K 1.31, L 3.56, Y 2.38, V 3.54, R 2.78, N 1.51, P 1.87, C 3.19, S 1.7, M 3.83, G 2.23, A 2.48, H 1.92, Q 1.67, E 2.52
R21: H 3.05, D 1.56, A 3.28, N 2.73, Q 3.37, T 3.86, K 2.46, I 2.93, V 3.2, P 1.31, M 2.31, W 1.43, L 3.64, F 2.13, S 3.4, G 2.33
A3: T 1.64, R 2.23, F 3.88, Q 2.56, V 3.63, N 2.47, I 3.83, L 2.85, W 2.58, E 2.88, S 2.42, D 1.54, Y 1.96, H 2.99, M 2.11, K 2.57, P 2.49, G 3.77, C 3.23
